Source: article PMC11098746 (2024)
No end group written: not given here.

B1: ADP137 (protein)
chain: MAVVGNPRSWSCQWLPILILLLGTGHGPGVEGVTHYKAGDPVILYVNKVGPYHNPQETYHYYQLPVCCPEKIRHKSLSLGEVLDGDRMAESLYEIRFRENVEKRILCHMQLSSAQVEQLRQAIEELYYFEFVVDDLPIRGFVGYMEESGFLPHSHKIGLWTHLDFHLEFHGDRIIFANVSVRDVKPHSLDGLRPDEFLGLTHTYSVRWSETSVERRSDRRRGDDGGFFPRTLEIHWLS
modifications: bait human Fc-tagged dimer
B2: ADP391 (protein)
chain: SSRHVLLQEEVAELQGQVQRTEVARGRLEKRNSDLLLLVDTHKKQIDQKEADYGRLSSRLQAREGLGKRCEDDKVKLQNNISYQMADIHHLKEQLAELRQEFLRQEDQLQDYRKNNTYLVKRLEYESFQCGQQMKELRAQHEENIKKLADQFLEEQKQETQKIQSNDGKELDINNQVVPKNIPKVAENVADKNEEPSSNHIPHGKEQIKRGGDAGMPGIEENDLAKVDDLPPALRKPPISVSQHESHQAISHLPTGQPLSPNMPPDSHINHNGNPGTSKQNPSSPLQRLIPGSNLDSEPRIQTDILKQATKDRVSDFHKLKQSRFFDENESPVDPQHGSKLADYNGDDGNVGEYEADKQAELAYNEEEDGDGGEEDVQGERGPGLHAITMKPTSKFFG
modifications: bait human Fc-tagged dimer
B3: ADP286 (peptide)
chain: MTGLSMDGGGSPKGDVDPFYYDYETVRN
modifications: also: human Fc-tagged dimer
B4: ADP131 (protein)
chain: MVRMVSWSFHKLKTMKHLLLLLLCVFLVKSQGVNDNEEGFFSARGHRPLDKKREEAPSLRPAPPPISGGGYRARPAKAAATQKKVERKAPDAGGCLHADPDLGVLCPTGCQLQEALLQQERPIRNSVDELNNNVEAVSQTSSSSFQYMYLLKDLWQKRQKQVKDNENVVNEYSSELEKHQLYIDETVNSNIPTNLRVLRSILENLRSKIQKLESDVSAQMEYCRTPCTVSCNIPVVSGKECEEIIRKGGETSEMYLIQPDSSVKPYRVYCDMNTENGGWTVIQNRQDGSVDFGRKWDPYKQGFGNVATNTDGKNYCGLPGEYWLGNDKISQLTRMGPTELLIEMEDWKGDKVKAHYGGFTVQNEANKYQISVNKYRGTAGNALMDGASQLMGENRTMTIHNGMFFSTYDRDNDGWLTSDPRKQCSKEDGGGWWYNRCHAANPNGRYYWGGQYTWDMAKHGTDDGVVWMNWKGSWYSMRKMSMKIRPFFPQQ
modifications: bait human Fc-tagged dimer
B5: ADP281 (protein)
chain: SIYEMVVDVLFLCFAIDTKYNDGSPGREFYMDKVLMEFVENSRKAMKEAGKGGVADSRELKPMASG
modifications: also: human Fc-tagged dimer
B6: ADP372 (protein)
chain: MARAMAAAWPLLLVALLVLSWPPPGTGDVVVQAPTQVPGFLGDSVTLPCYLQVPNMEVTHVSQLTWARHGESGSMAVFHQTQGPSYSESKRLEFVAARLGAELRNASLRMFGLRVEDEGNYTCLFVTFPQGSRSVDIWLRVLAKPQNTAEVQKVQLTGEPVPMARCVSTGGRPPAQITWHSDLGGMPNTSQVPGFLSGTVTVTSLWILVPSSQVDGKNVTCKVEHESFEKPQLLTVNLTVYYPPEVSISGYDNNWYLGQNEATLTCDARSNPEPTGYNWSTTMGPLPPFAVAQGAQLLIRPVDKPINTTLICNVTNALGARQAELTVQVKEGPPSEHSGISRN
modifications: bait human Fc-tagged dimer
B7: ADP347 (protein)
chain: MAATLGPLGSWQQWRRCLSARDGSRMLLLLLLLGSGQGPQQVGAGQTFEYLKREHSLSKPYQGVGTGSSSLWNLMGNAMVMTQYIRLTPDMQSKQGALWNRVPCFLRDWELQVHFKIHGQGKKNLHGDGLAIWYTKDRMQPGPVFGNMDKFVGLGVFVDTYPNEEKQQERVFPYISAMVNNGSLSYDHERDGRPTELGGCTAIVRNLHYDTFLVIRYVKRHLTIMMDIDGKHEWRDCIEVPGVRLPRGYYFGTSSITGDLSDNHDVISLKLFELTVERTPEEEKLHRDVFLPSVDNMKLPEMTAPLPPLSGLA
modifications: bait human Fc-tagged dimer
B8: ADP149 (protein)
chain: MAWKHVPFLVMISLLSLSPNHLFLAQLIPDPEDVERGNDHGTPIPTSDNDDNSLGYTGSRLRQEDFPPRIVEHPSDLIVSKGEPATLNCKAEGRPTPTIEWYKGGERVETDKDDPRSHRMLLPSGSLFFLRIVHGRKSRPDEGVYVCVARNYLGEAVSHNASLEVAILRDDFRQNPSDVMVAVGEPAVMECQPPRGHPEPTISWKKDGSPLDDKDERITIRGGKLMITYTRKSDAGKYVCVGTNMVGERESEVAELTVLERPSFVKRPSNLAVTVDDSAEFKCEARGDPVPTVRWRKDDGELPKSRYEIRDDHTLKIRKVTAGDMGSYTCVAENMVGKAEASATLTVQEPPHFVVKPRDQVVALGRTVTFQCEATGNPQPAIFWRREGSQNLLFSYQPPQSSSRFSVSQTGDLTITNVQRSDVGYYICQTLNVAGSIITKAYLEVTDVIADRPPPVIRQGPVNQTVAVDGTFVLSCVATGSPVPTILWRKDGVLVSTQDSRIKQLENGVLQIRYAKLGDTGRYTCIASTPSGEATWSAYIEVQEFGVPVQPPRPTDPNLIPSAPSKPEVTDVSRNTVTLSWQPNLNSGATPTSYIIEAFSHASGSSWQTVAENVKTETSAIKGLKPNAIYLFLVRAANAYGISDPSQISDPVKTQDVLPTSQGVDHKQVQRELGNAVLHLHNPTVLSSSSIEVHWTVDQQSQYIQGYKILYRPSGANHGESDWLVFEVRTPAKNSVVIPDLRKGVNYEIKARPFFNEFQGADSEIKFAKTLEEAPSAPPQGVTVSKNDGNGTAILVSWQPPPEDTQNGMVQEYKVWCLGNETRYHINKTVDGSTFSVVIPFLVPGIRYSVEVAASTGAGSGVKSEPQFIQLDAHGNPVSPEDQVSLAQQISDVVKQP
modifications: bait human Fc-tagged dimer
B9: ADP388 (protein)
chain: SEGHGGAQLQAELRSLKEAFSNFSSSTLTEVQAISTHGGSVGDKITSLGAKLEKQQQDLKADHDALLFHLKHFPVDLRFVACQMELLHSNGSQRTCCPVNWVEHQGSCYWFSHSGKAWAEAEKYCQLENAHLVVINSWEEQKFIVQHTNPFNTWIGLTDSDGSWKWVDGTDYRHNYKNWAVTQPDNWHGHELGGSEDCVEVQPDGRWNDDFCLQVYRWVCEKRRNATGEVA
modifications: bait human Fc-tagged dimer
B10: ADP345 (protein)
chain: MALLAGGLSRGLGSHPAAAGRDAVVFVWLLLSTWCTAPARAIQVTVSNPYHVVILFQPVTLPCTYQMTSTPTQPIVIWKYKSFCRDRIADAFSPASVDNQLNAQLAAGNPGYNPYVECQDSVRTVRVVATKQGNAVTLGDYYQGRRITITGNADLTFDQTAWGDSGVYYCSVVSAQDLQGNNEAYAELIVLGRTSGVAELLPGFQAGP
modifications: bait human Fc-tagged dimer
B11: ADP159 (protein)
chain: MAALRPTLLPPSLPLLLLLMLGMGCWAREVLVPEGPLYRVAGTAVSISCNVTGYEGPAQQNFEWFLYRPEAPDTALGIVSTKDTQFSYAVFKSRVVAGEVQVQRLQGDAVVLKIARLQAQDAGIYECHTPSTDTRYLGSYSGKVELRVLPDVLQVSAAPPGPRGRQAPTSPPRMTVHEGQELALGCLARTSTQKHTHLAVSFGRSVPEAPVGRSTLQEVVGIRSDLAVEAGAPYAERLAAGELRLGKEGTDRYRMVVGGAQAGDAGTYHCTAAEWIQDPDGSWAQIAEKRAVLAHVDVQTLSSQLAVTVGPGERRIGPGEPLELLCNVSGALPPAGRHAAYSVGWEMAPAGAPGPGRLVAQLDTEGVGSLGPGYEGRHIAMEKVASRTYRLRLEAARPGDAGTYRCLAKAYVRGSGTRLREAASARSRPLPVHVREEGVVLEAVAWLAGGTVYRGETASLLCNISVRGGPPGLRLAASWWVERPEDGELSSVPAQLVGGVGQDGVAELGVRPGGGPVSVELVGPRSHRLRLHSLGPEDEGVYHCAPSAWVQHADYSWYQAGSARSGPVTVYPYMHALDT
modifications: bait human Fc-tagged dimer
B12: ADP264 (protein)
chain: GRFSLFGLGGEPGGGAAGPAAAADGGTVDLREMLAVSVLAAVRGGDEVRRVRESNVLHEKSKGKTREGAEDKMTSGDVLSNRKMFYLLKTAFPSVQINTEEHVDAADQEVILWDHKIPEDILKEVTTPKEVPAESVTVWIDPLDATQEYTEDLRKYVTTMVCVAVNGKPMLGVIHKPFSEYTAWAMVDGGSNVKARSSYNEKTPRIVVSRSHSGMVKQVALQTFGNQTTIIPAGGAGYKVLALLDVPDKSQEKADLYIHVTYIKKWDICAGNAILKALGGHMTTLSGEEISYTGSDGIEGGLLASIRMNHQALVRKLPDLEKTGHK
modifications: bait human Fc-tagged dimer
B13: ADP135 (protein)
chain: MTPPRLFWVWLLVAGTQGVNDGDMRLADGGATNQGRVEIFYRGQWGTVCDNLWDLTDASVVCRALGFENATQALGRAAFGQGSGPIMLDEVQCTGTEASLADCKSLGWLKSNCRHERDAGVVCTNETRSTHTLDLSRELSEALGQIFDSQRGCDLSISVNVQGEDALGFCGHTVILTANLEAQALWKEPGSNVTMSVDAECVPMVRDLLRYFYSRRIDITLSSVKCFHKLASAYGARQLQGYCASLFAILLPQDPSFQMPLDLYAYAVATGDALLEKLCLQFLAWNFEALTQAEAWPSVPTDLLQLLLPRSDLAVPSELALLKAVDTWSWGERASHEEVEGLVEKIRFPMMLPEELFELQFNLSLYWSHEALFQKKTLQALEFHTVPFQLLARYKGLNLTEDTYKPRIYTSPTWSAFVTDSSWSARKSQLVYQSRRGPLVKYSSDYFQAPSDYRYYPYQSFQTPQHPSFLFQDKRVSWSLVYLPTIQSCWNYGFSCSSDELPVLGLTKSGGSDRTIAYENKALMLCEGLFVADVTDFEGWKAAIPSALDTNSSKSTSSFPCPAGHFNGFRTVIRPFYLTNSSGVD
modifications: bait human Fc-tagged dimer
B14: ADP109 (protein)
chain: MGIQGGSVLFGLLLVLAVFCHSGHSLQCYNCPNPTADCKTAVNCSSDFDACLITKAGLQVYNKCWKFEHCNFNDVTTRLRENELTYYCCKKDLCNFNEQLEN
modifications: bait human Fc-tagged dimer
B15: ADP153 (protein)
chain: MAGIWTLLPLVLTSVARLSSKSVNAQVTDINSKGLELRKTVTTVETQNLEGLHHDGQFCHKPCPPGERKARDCTVNGDEPDCVPCQEGKEYTDKAHFSSKCRRCRLCDEGHGLEVEINCTRTQNTKCRCKPNFFCNSTVCEHCDPCTKCEHGIIKECTLTSNTKCKEEGS
modifications: bait human Fc-tagged dimer
B16: ADP312 (protein)
chain: MALDRPGEGATMLKTFTVLLFCIRMSLGMTSIVMDPQPELWIESNYPQAPWENITLWCRSPSRISSKFLLLKDKTQMTWIRPSHKTFQVSFLIGALTESNAGLYRCCYWKETGWSKPSKVLELEAPGQLPKPIFWIQAETPALPGCNVNILCHGWLQDLVFMLFKEGYAEPVDYQVPTGTMAIFSIDNLTPEDEGVYICRTHIQMLPTLWSEPSNPLKLVVAGLYPKPTLTAHPGPIMAPGESLNLRCQGPIYGMTFALMRVEDLEKSFYHKKTIKNEANFFFQSLKIQDTGHYLCFYYDASYRGSLLSDVLKIWVTDTFPKTWLLARPSAVVQMGQNVSLRCRGPVDGVGLALYKKGEDKPLQFLDATSIDDNTSFFLNNVTYSDTGIYSCHYLLTWKTSIRMPSHNTVELMVVDKPPKPSLSAWPSTVFKLGKAITLQCRVSHPVLEFSLEWEERETFQKFSVNGDFIISNVDGKGTGTYSCSYRVETHPNIWSHRSEPLKLMGPAGYLTWNYVLN
modifications: bait human Fc-tagged dimer

Target: Circumsporozoite protein (CSP) (Plasmodium falciparum (isolate 3D7), UniProt Q7K740)
Assay: AVEXIS screen signal:noise (double-corrected)

Chain of Circumsporozoite protein (CSP) (Q7K740 19-374): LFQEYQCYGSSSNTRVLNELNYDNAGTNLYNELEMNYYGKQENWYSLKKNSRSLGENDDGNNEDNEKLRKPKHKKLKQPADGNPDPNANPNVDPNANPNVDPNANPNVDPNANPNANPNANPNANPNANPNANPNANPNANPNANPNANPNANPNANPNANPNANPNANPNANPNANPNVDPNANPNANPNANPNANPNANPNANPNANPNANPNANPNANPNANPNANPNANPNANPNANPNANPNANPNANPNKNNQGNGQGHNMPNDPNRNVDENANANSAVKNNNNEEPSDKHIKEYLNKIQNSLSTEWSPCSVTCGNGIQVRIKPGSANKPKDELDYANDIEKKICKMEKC

Row | Binder | binding score
1 | B1 | 0.831
2 | B2 | 0.592
3 | B3 | 1.14
4 | B4 | 0.806
5 | B5 | 0.848
6 | B6 | 1.04
7 | B7 | 0.741
8 | B8 | 0.924
9 | B9 | 0.484
10 | B10 | 0.842
11 | B11 | 0.885
12 | B12 | 0.964
13 | B13 | 0.514
14 | B14 | 1.68
15 | B15 | 1.01
16 | B16 | 0.61
